Assay results taken from publication PMC9019556, “Molecular interactions of STAC proteins with skeletal muscle dihydropyridine receptor and excitation‐contraction coupling” (Protein Science : A Publication of the Protein Society, 2022).
Each block holds one binder with its values, some of them ahead of it.

Biological target: T1, full-length II–III loop of the skeletal muscle dihydropyridine receptor α1S subunit (UniProt P07293 665-785)
T1 construct: cytosolic II–III loop of the DHPR α1S subunit (skeletal muscle voltage-dependent L-type calcium channel), 115 amino acids; The methods' sentence 'genes for human STAC2SH3s and the DHPR II–III loop' leaves open whether the loop is human; Used unlabelled (SPR, immobilised) and 15N-labelled (NMR); also called DHPR II–III loop; full II–III loop
T1 sequence (looked up): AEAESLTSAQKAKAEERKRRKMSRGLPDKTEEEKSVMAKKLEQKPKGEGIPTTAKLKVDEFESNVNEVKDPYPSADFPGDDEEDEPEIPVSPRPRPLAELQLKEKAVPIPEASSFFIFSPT
Experiment: SPR; full DHPR II–III loop immobilised on a CM5 chip by amine coupling; STAC proteins flowed over at 30 μL/min for 120 s; Biacore 8K, 20°C; 10 mM HEPES-HCl pH 7.4, 150 mM NaCl, 0.05% Tween-20, 3 mM EDTA; affinity curve
Conditions: both partners purified

- Kd: 21 µM
B1: tandem SH3 domains of STAC3 (SH3 and cysteine-rich domain-containing protein 3) (domain or fragment, human)
chain: GFQQSHYFVALYRFKALEKDDLDFPPGEKITVIDDSNEEWWRGKIGEKVGFFPPNFIIRVRAGERVHRVTRSFVGNREIGQITLKKDQIVVQKGDEAGGYVKVYTGRKVGLFPTDFLEEI
notes: human STAC3, tandem SH3 domains (SH3_1 and SH3_2) at the C-terminal end; Used unlabelled (SPR, titrant in NMR) and 15N-labelled (NMR titration with the C3 peptide); also called STAC3SH3s

- Kd: 22.6 µM
B2: tandem SH3 domains of STAC2 (domain or fragment, human)
chain: SYVALYKFLPQENNDLALQPGDRIMLVDDSNEDWWKGKIGDRVGFFPANFVQRVRPGENVWRCCQPFSGNKEQGYMSLKENQICVGVGRSKDADGFIRVSSGKKRGLVPVDALTEI
notes: human STAC2, tandem SH3 domains (SH3_1 and SH3_2) at the C-terminal end; Used unlabelled (SPR) and 15N-labelled (NMR); also called STAC2SH3s
